According to publication PMC11807975, “The secreted host-cell protein clusterin interacts with PmpD and promotes Chlamydia trachomatis infection” (Frontiers in Cellular and Infection Microbiology, 2024):
Where “and” joins values, the source holds several entries; their conditions need not be identical. Equal entries are not always repeated.

Target: the molecule itself
Assay: native gel or EMSA; Blue Native-PAGE (Native PAGE Novex 3-12% Bis-Tris) of the SEC elution fraction of rD72 at 1.4 ml; Coomassie stain

B1: recombinant D72 (rD72), proteolytically processed fragment of Chlamydia trachomatis serovar E PmpD, residues 68-761, N-terminal 10x His-Tag (domain or fragment)
chain: DSQAEGQYRLIVGDPSSFQEKDADTLPGKVEQSTLFSVTNPVVFQGVDQQDQVSSQGLICSFTSSNLDSPRDGESFLGIAFVGDSSKAGITLTDVKASLSGAALYSTEDLIFEKIKGGLEFASCSSLEQGGACAAQSILIHDCQGLQVKHCTTAVNAEGSSANDHLGFGGGAFFVTGSLSGEKSLYMPAGDMVVANCDGAISFEGNSANFANGGAIAASGKVLFVANDKKTSFIENRALSGGAIAASSDIAFQNCAELVFKGNCAIGTEDKGSLGGGAISSLGTVLLQGNHGITCDKNESASQGGAIFGKNCQISDNEGPVVFRDSTACLGGGAIAAQEIVSIQNNQAGISFEGGKASFGGGIACGSFSSAGGASVLGTIDISKNLGAISFSRTLCTTSDLGQMEYQGGGALFGENISLSENAGVLTFKDNIVKTFASNGKILGGGAILATGKVEITNNSEGISFTGNARAPQALPTQEEFPLFSKKEGRPLSSGYSGGGAILGREVAILHNAAVVFEQNRLQCSEEEATLLGCCGGGAVHGMDSTSIVGNSSVRFGNNYAMGQGVSGGALLSKTVQLAGNGSVDFSRNIASLGGGALQASEGNCELVDNGYVLFRDNRGRVYGGAISCLRGDVVISGNKGRVEFKDNIATRLYVEETVEKVEEVEPAPEQKDNNELSFLGRAEQSFITAANQA
notes: In solution a high-molecular-weight oligomer (720-1048 kDa by Blue Native-PAGE, calculated 10- to 15-mer); also called rPmpD; His-PmpD; source: E. coli Origami, purified (Ni-NTA agarose, dialysed in PBS); not shown: 10xHis, N-terminal, kept; copies: 10-15
  stoichiometry N: 10 and 15
